Reverse-splicing fitness data for 83 variants are collected here from the RNAGym collection of RNA variant scans (doi:10.1093/molbev/msab373).

To fix the notation:
B1: Azoarcus group I ribozyme (parent)
chain: GUGCCUUGCGCCGGGAAACCACGCAAGGGAUGGUGUCAAAUUCGGCGAAACCUAAGCGCCCGCCCGGGCGUAUGGCAACGCCGAGCCAAGCUUCGGCGCCUGCGCCGAUGAAGGUGUAGAGACUAGACGGCACCCACCUAAGGCAAACGCUAUGGUGAAGGCAUAGUCCAGGGAGUGGCGAAAGUCACACAAACCGG

In the data set the parent is B1. The data set can be described thus: reverse-splicing fitness (ratio to wild type); higher = more active; in vitro selection; Mg2+ level not given. In outline: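 An in vitro group I ribozyme library with randomized positions was T7-transcribed and gel-purified. In triplicate, 10 pmol RNA in EPPS pH 7.5 was reacted with 50 pmoles of a 30-nt RNA substrate for 1 h at 37 °C across several added MgCl2 levels (1–48 mM), then stopped with EDTA. Products were reverse transcribed from a substrate-complementary primer, PCR-amplified and sequenced (HiSeq 4000). Fitness is a variant's read proportion after selection over that before, normalised to wild type.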
Turning to C82A A111C A120G A145U C150U U176A, the reverse-splicing fitness was 0.0121.

In the case of C82A A111C A120G A145U C150G C169A U176C, the reverse-splicing fitness is 0.00969.

For C82A A111C A120G A145U C150G C169A U176A, the reverse-splicing fitness was found to be 0.00941.

In the case of C82A A111C A120G A145U C150G C169A U176G, the reverse-splicing fitness was 0.00558.

In the case of C82A A111C A120U A145C C169U U176C, the reverse-splicing fitness was 0.00326.

For C82A A111C A120U A145C C169U U176G, the reverse-splicing fitness stood at 0.00232.

Turning to C82A A111C A120U A145C C169U U176A, the reverse-splicing fitness was 0.00272.

C82A A111C A120U A145G C150A U176A: the reverse-splicing fitness was 0.00754.

For the variant C82A A111C A120U A145G C150A U176C, the reverse-splicing fitness came out at 0.00799.

Consider C82A A111C A120U A145G C150A U176G, for which the reverse-splicing fitness worked out at 0.00381.

As for C82A A111C A120G C169A U176A, the reverse-splicing fitness worked out at 0.0155.

With C82A A111C A120G C169A U176G, the reverse-splicing fitness amounted to 0.00465.

In the case of C82A A111C A120G C169A U176C, the reverse-splicing fitness is 0.0177.

In the case of C82A A111C A120U A145U C169G U176A, the reverse-splicing fitness came out at 0.00336.

C82A A111C A120G C150G C169G: the reverse-splicing fitness was 0.00748.

Consider C82A A111C A120G C150G C169U, for which the reverse-splicing fitness came to 0.00833.

Turning to C82A A111C A120G C150G C169A, the reverse-splicing fitness stood at 0.0097.

For the variant C82A A111C A120U A145U C150A C169G U176C, the reverse-splicing fitness is 0.00377.

As to C82A A111C A120U A145U C150A C169G U176A, the reverse-splicing fitness turned out to be 0.003.

On to C82A A111C A120U A145U C150A C169G U176G, for which the reverse-splicing fitness turned out to be 0.00247.

On to C82A A111C A120G A145U, for which the reverse-splicing fitness came out at 0.0152.

Turning to C82A A111C A120U A145G U176G, the reverse-splicing fitness is 0.0035.

With C82A A111C A120U A145G U176A, the reverse-splicing fitness came out at 0.00698.

In the case of C82A A111C A120U A145G U176C, the reverse-splicing fitness amounted to 0.0109.

Consider C82A A111C A120G A145U C150G U176G, for which the reverse-splicing fitness came out at 0.0034.

For C82A A111C A120G A145U C150G U176C, the reverse-splicing fitness worked out at 0.0147.

Turning to C82A A111C A120G A145U C150G U176A, the reverse-splicing fitness was 0.0064.

Turning to C82A A111C A120U A145U C150A, the reverse-splicing fitness was 0.00598.

With C82A A111C A120U A145U C150G, the reverse-splicing fitness came out at 0.00626.

For the variant C82A A111C A120U A145U C150U, the reverse-splicing fitness is 0.0169.

As for C82A A111C A120U A145C C150A C169G U176G, the reverse-splicing fitness came out at 0.00211.

Regarding C82A A111C A120U A145C C150A C169G U176A, the reverse-splicing fitness was 0.0036.

Turning to C82A A111C A120U A145C C150A C169G U176C, the reverse-splicing fitness was found to be 0.00345.

As to C82A A111C A120G C150U C169U U176A, the reverse-splicing fitness came to 0.0157.

C82A A111C A120G C150U C169U U176C: the reverse-splicing fitness was found to be 0.0155.

In the case of C82A A111C A120G C150U C169U U176G, the reverse-splicing fitness was determined as 0.00631.

With C82A A111C A120U A145G C150U, the reverse-splicing fitness amounted to 0.0191.

On to C82A A111C A120U A145G C150G, for which the reverse-splicing fitness is 0.00762.

As for C82A A111C A120U A145G C150A, the reverse-splicing fitness came to 0.00897.

C82A A111C A120U A145G C150U C169A U176G: the reverse-splicing fitness came out at 0.00324.

Take C82A A111C A120U A145G C150U C169A U176C: the reverse-splicing fitness was 0.00432.

C82A A111C A120U A145G C150U C169A U176A: the reverse-splicing fitness was found to be 0.00915.

Take C82A A111C A120U A145G C169U U176C: the reverse-splicing fitness worked out at 0.00417.

In the case of C82A A111C A120U A145G C169U U176G, the reverse-splicing fitness turned out to be 0.00234.

As to C82A A111C A120U A145G C169U U176A, the reverse-splicing fitness turned out to be 0.00527.

Regarding C82A A111C A120G C150A, the reverse-splicing fitness worked out at 0.00933.

With C82A A111C A120G C150G, the reverse-splicing fitness worked out at 0.00723.

For C82A A111C A120G C150U, the reverse-splicing fitness worked out at 0.0107.

On to C82A A111C A120U A145C C169A U176G, for which the reverse-splicing fitness worked out at 0.00214.

Regarding C82A A111C A120U A145C C169A U176C, the reverse-splicing fitness was 0.00295.

Turning to C82A A111C A120U A145C C169A U176A, the reverse-splicing fitness stood at 0.00272.

For C82A A111C A120G A145U C169G, the reverse-splicing fitness came out at 0.00868.

Regarding C82A A111C A120G A145U C169A, the reverse-splicing fitness was determined as 0.00893.

For C82A A111C A120G A145U C169U, the reverse-splicing fitness amounted to 0.00891.

For the variant C82A A111C A120U A145U C169A U176C, the reverse-splicing fitness amounted to 0.00315.

C82A A111C A120U A145U C169A U176G: the reverse-splicing fitness turned out to be 0.00264.

For the variant C82A A111C A120U A145U C169A U176A, the reverse-splicing fitness was found to be 0.00312.

For the variant C82A A111C A120G C150A U176C, the reverse-splicing fitness came to 0.0233.

Regarding C82A A111C A120G C150A U176G, the reverse-splicing fitness is 0.00789.

On to C82A A111C A120G C150A U176A, for which the reverse-splicing fitness stood at 0.0133.

Consider C82A A111C A120G A145U C150G C169G, for which the reverse-splicing fitness is 0.00749.

Take C82A A111C A120G A145U C150G C169U: the reverse-splicing fitness was determined as 0.00788.

With C82A A111C A120G A145U C150G C169A, the reverse-splicing fitness was found to be 0.00851.

As to C82A A111C A120G A145G C150U C169G U176G, the reverse-splicing fitness was found to be 0.00582.

On to C82A A111C A120G A145G C150U C169U U176G, for which the reverse-splicing fitness came out at 0.00525.

As for C82A A111C A120G A145G C150U C169U U176C, the reverse-splicing fitness is 0.0131.

Take C82A A111C A120G A145G C150U C169U U176A: the reverse-splicing fitness stood at 0.0155.

Take C82A A111C A120G C150G C169A U176A: the reverse-splicing fitness came to 0.0102.

Turning to C82A A111C A120G C150G C169A U176G, the reverse-splicing fitness is 0.00659.

Turning to C82A A111C A120G C150G C169A U176C, the reverse-splicing fitness was 0.00996.

For the variant C82A A111C A120G A145U C150U C169U U176G, the reverse-splicing fitness stood at 0.00648.

Turning to C82A A111C A120G A145U C150U C169U U176C, the reverse-splicing fitness amounted to 0.012.

For C82A A111C A120G A145U C150U C169U U176A, the reverse-splicing fitness was 0.0153.

Take C82A A111C A120G C150A C169U U176G: the reverse-splicing fitness is 0.00682.

With C82A A111C A120G C150A C169U U176A, the reverse-splicing fitness came out at 0.018.

Regarding C82A A111C A120G C150A C169U U176C, the reverse-splicing fitness stood at 0.018.

Consider C82A A111C A120U A145U C150U C169U U176C, for which the reverse-splicing fitness was determined as 0.00348.

C82A A111C A120U A145U C150U C169U U176G: the reverse-splicing fitness is 0.00288.

Turning to C82A A111C A120U A145U C150U C169U U176A, the reverse-splicing fitness was 0.00402.

In the case of C82A A111C A120U A145G C150A C169A U176C, the reverse-splicing fitness worked out at 0.00537.

On to C82A A111C A120U A145G C150A C169A U176G, for which the reverse-splicing fitness turned out to be 0.00349.

For C82A A111C A120U A145G C150A C169A U176A, the reverse-splicing fitness amounted to 0.00894.

On to C82A A111C A120U A145C C169G U176A, for which the reverse-splicing fitness is 0.00292.
